From the domain aggregation screens of Martell et al. (2025)

assay: soluble fraction after stress (log2 fold change); higher = more stays soluble; pooled small domains, quantitative proteomics; conditions: stress: pH 4
Method in brief: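 Small protein domains from pooled custom libraries were exposed to pH 4, then quantified with high-throughput quantitative proteomics. The fold change in how much of each domain remains soluble is read as aggregation propensity. It is given as log2, with higher values meaning more stayed soluble.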

Sequence | soluble fraction (log2)
HMNNDSQYLATLQRYYAEHRVLPSYARMLPLLGFASKAAVKKVLERLEVVGMLERTEDGDWAPSERFFER | 0.0419
HMNNGYSINEIAKLMKMTLKVVRRYVASGELKTTKTNNTYSISEEAFNEFKKYIEEGGDAKHAQEVADTFK | -0.554
HMNNIGENIKKYRTKQGLSQEDFAKKSGVKYTTLTKIESGVIKKPSVLVMAKIAKALGVNIEELI | ≥ 0.43
HMNNIINEAQIKQWVEEFYLSVSPRPTRATMIALVHKKIKEETKDGEEGQTVSETLINNFYTALEKEHKRK | 0.22
HMNNIPFIITDERLNVIQSHLVPREVLDHPDRLRRQIDRFTEENQPKTVNYWWGPEHRHIIFYGKSK | 0.281
HMNNIYFSPVVEENNKGLRLDKFLAASFPEFSRSQLQRLILEGNVSNDDVVIADNSQKVRVGDSFQVIVPE | -0.0304
HMNNKSDLLFNHLRQRIATMENGTIFPSVRQLMTEYNVSQSTVSTAIRSLKELGLLEALSRQGMVVRKE | 0.104
HMNNLGSKIKELRIAENLTQEKLAEELNVSFQSISRWENGISTPDISLIPAIARFFGVSTDYLFGLQD | -1.03
HMNNLPDFIKQLRKENNLTQEYVASEIGVSRPTYEQIEKGKRELTISEAEKLAKIFNIPLENFLQGKKGV | -0.0996
HMNNPLPDLLKYFRKKKHLTQEQVAKQLSVSRASYASYETGRIIPGMQHIMELSRILEHDFLFAYTLAVQ | -0.446
HMNNPNFAIQKYVTGSDIKRVRKTLRLTQKKFAELVGVSKATMERWETKEDKITGPVVLLLKILEDHPEY | -0.0904
HMNNQKATAVKVASGIVNLRSGPATSYETLDTVATGETLSVLAEKDGWFQVSRAGRTGWVAGWVVDVIRE | -0.586
HMNNSSIGERLKYQRKIKGYSQEELADRTNVTVRTIQRIEKEEVSPHLNTIKLLAIALDIEVDELVAL | -1.18
HMNNSVAYSTFLNDIRTNTLKDVDMTSNSETINVTKKDGTKYQTVMPMYDRDLLADLSKTDATVTGQP | -0.155
HMNNTIKFSVDIKNSGKRLDIFLSENVTQYTRSYLKRLIENSHVKLNNKILNSPSTKVKFQDQIIINNIE | 0.0707
HMNNTIKFSVDTTNSGKRLDIFLAENIKQFTRSYLKKIISNNQVKLNNLVANSPSIKVKHSDLILINILE | -0.62
HMNNTVLSSVKSINMFLDANGGDAGQAFRIYNNTNPDSNPTESTYIFKVAEDGNTFVKGYLNLNGTTL | 0.378
HMNNVRIEHIDTIGTVRLHKKRGVKRVSLRIHQSGEIRVTQPLYLPFSAGVLFAKSHTEWIMKQKQK | 0.0224
HMNNWRRSLEREVTASLARGDRDIFDGLNRSFEAALITKALEHTGGRRIEAATLLGIGRNTLTRKIQDLGL | -0.79
HMNNYEGIVKSVSNSNVYIQVAGRTIGYTISPHTIIMVNGKNVPASELMPGQHVSYTNKGSKLSYININS | 0.205
HMNNYFPAYKGSATSIAPALKQMGVNNSYAYRSKIAAVNNITGYRGTPAQNTQMLNLLKQGRLIK | -0.156
HMNNYNDSVQKIINYIADNLNENLSVRKLADKMPMSVSHFNRVFQKYTGDSPYAYVMAMRIKKAKYL | -0.565
HMNPAIYIRKNILNLTQEKLSEYLDVTQPTIHRWEESGVIPAKHQRQIREFASEKGIYWNDSWFFSIPDE | -1.2

Sequence | soluble fraction (log2)
HMNPDMIAGVLKVPAAAGRLRSALFELGVVDDESYDDDGASRLTVTASQSDLERIVAQAGLVFEDVLVERR | -1.3
HMNPEAFIQTLKQILSTYEKNDPIYLQEIKADLVKKFRIEIPINALETYLKENGYSNIYLKR | -0.516
HMNPEDLSGVRKAAILLLTMDDEVTKDVMKGLDEEEIEAIGKEITNLKLIPDHVVHRVQEEFMTKVSK | -0.375
HMNPESRRSELIDAATKLFFSRGYTATSIRDILDAVDDRTASPSVFYYYFESKEAIYQAVLQRYTD | -1.34
HMNPETPAQQAVRKRLIVSVQFYRRLKDTPLKAVWQVAARDTLVNGYNLFLKRNIHAFNDRTLSTPSALS | 0.089
HMNPFPDNTAEVLSQFKNIIVPELNTGQLSKLLRARYLVDTVGINKVEGLPFTAQELEEKIESLINSF | -0.705
HMNPGQIIRKLRQDQGMTLAVLAKYANLDPGNLSRIERDDLNISFNLLEKLSLILNVSPIVFFH | -0.0716
HMNPLSELSFEERRELFLEAAVRLFEEKGYKNTSVEDIAGELGFTKKVFYYYWKNKREIVQEIHDRGMA | -0.986
HMNPNFIEVSHGRLRVNVPLSAYEGTTYHIKPEEAEKLKRTLASRYPWLTPNALKVFIEEAEQAMRERIQ | 0.217
HMNPSKEFNMSDLLKAKMVGDVSAAKRREKAGALLHIGYGNAKTFLKKLNHFSISREEWDKVIAAMEEF | 0.0295
HMNPSVSSDERILLQKALGILSAEQKQIVMLHAVAGIKHREIAKLLDMPIATVLSKYSRAVNKLRHAMEA | -0.298
HMNPTTDFFKLEGIDATRILVFDQVGRQVAQFSQPAQQMDIQALPAGVYALRIENADGQVYSARIVK | -0.773
HMNPVVATTIILDGEIIKDNLAEANLSEEWLLEELKRQNFNDVKEVFYAEWLDGKQLFAYPYTK | -0.789
HMNQDIIEIGNNIQKIRKKNGISQSVLAEKIDVAGNSIYRMEGATTVMGVDKLINIADALNTSPMDILPAR | 0.0428
HMNQDMINFDKLSVRLKNVLIENNLKTVDSLLNYPAEEFEYLTNLGEKTLQELLTYRNELAASNNIQ | -1.17
HMNQGKLIEMLQEMKEIAHSQNNYLTKNEIANYLGDTVLSKEQLQAVYHYLGENHIEVEGYVYIP | -0.51
HMNQIATSTQAIITTLSFLNTSSIFKLPVGDTASRPTGVSPGTLRFNSQEDSAEIYKADDGTGSAGWTEVA | -1.3
HMNQIDEATAATITTLNFLNTNSEFKIPVGDTATRPGTPAIGMMRFNSENDKAEIYVADFDGDGNPGWINL | -1.52
HMNQILDFTREVKNLPEQDKIKIVEALWSIIYSNKDADIYETNLMRRLAGLLYIDNKTMGDIKEKIKQNL | -0.421
HMNQNHFLDSVVEFAKDEASRAFFQKAVKKLGEGLVEEAMGEVKMREADGSVNSRAPYFIALLENWMENR | -0.128
HMNQNIYVPKLEGLQIEEASSILKSKGLNIEITDSIFRKDAVPGAIIEQTPKPNSRVKTGRNIYVSIYSK | -0.199
HMNQSEMIGSRLKEERLQQKLTLKQLSEKVGLSIGYLSQVERGYGTLSLSALKKLSSALGLEMSTFFD | 0.121
HMNQTGQYENAAKRFNQLITIDSSDKRAYLQLGISNYNLGNKEKADSLFNIIRNSKDKLLIEELDNFLT | -0.169

Sequence | soluble fraction (log2)
HMNQYALTDREKNVLGLLVDGLSYKMIADKENISFHTVNAHVRKIYEKLHVHSLAEAVSKALKENL | 0.056
HMNQYRKLDGDVQNQIIYILSEYPKLPATIVYQRLLDTNTIVKKDVSLSTVNRFVQKYKDSKGIT | 0.0672
HMNREDYIKAIFKIAEREGEASNQRIADSLGVSRASASEMVKKLIQEGFVVAEGRQLSLSAEGERIA | -0.32
HMNREEKKALTRRQIIDVATRLFRQHGIHNTDLKTIATEAGVSVVTFYKYFDSKEALIGTIAAEQ | -0.23
HMNRNHVFDSNGPDLRLRGTAQQLFEKYLQLGRDATSGGDRVMAEGYFQHAEHYFRILNAMNQAAMQH | -0.0835
HMNRPYETLFTGLTTDEASAIVGKLEEYGAADYKIEGDTIKVPAAQEPDLKAKLLLDGYPKS | 0.0842
HMNRTEYMAALRRALSVLPEEERASALRYYEEYFDDAGPENEEKVIADLGAPEKVAGQILADYRE | -0.462
HMNSDQMKEHLDNLVDMAKKNDNTLIDTEIVNYFVGKPDIELNTDMMTKIFDYLDEHHVAVLS | -1.85
HMNSEFPFNGGRIVDNVPANRLQIFFDEKPDADVRTRLKQNGFRWAPNSGAWQSYRHGYTLDWARREFNA | -0.197
HMNSEPKTKLQEIAQERGLAAPVYETTHTGPDHDRIFSASVTVGDVVAAGEARSRKGAESEAAIAAIKALG | 0.155
HMNSFGWESLIDKEGIADTDLHPSGWVRIDDRRIFVVSEGDFIDKGSGVTVLSVDGNRVVVRELI | -1.03
HMNSHLEEGRHGLQIGDPGIVRARIESDPEGETDMPVVVIDGRNISWNEFGRMVATYTGFQFKLEM | -0.58
HMNSHQNELDNALTEAHTASRRLLEGTDEYLDLSSQPAYIRRLQHLLAQKYNLGSLSSGVEPNRHIRLLQ | -0.174
HMNSIDIENELVKIIEKNGQPMSFDDLVFKLDSLYSTRYKFAKGYIRTIILNSNRIASIGKTSTYSLYKWN | -0.31
HMNSKKETLLSYLYNHSTWSSRNDLSNFLNVSTRQVTNYINEINKNETIVLSSNKGYKINPKFIGKN | 0.22
HMNSKMTYSDLIGNIEQGNVSSVELASDGKSATVTLTDNSQKQVNIPSLDSFVTYVQDHIKAGTLSVEE | 0.109
HMNSKSDDELLSKTTSLLIHAAKIDENYTDKEKEIIKKTLIQLGVKESKADQIMLTAEINEE | -0.36
HMNSKYILLQVSDIPKTSLVLERQFGVTEYSVQDEHTLRIYDTSLDMAAVNKALVVQDIAVISSQL | -1.3
HMNSLFPLSLKYLREQANITQAELAQKLDVTQQAVGRWERGQTSPDYETLKRLSVLFNVSVDYLLGV | -0.359
HMNSNIIKTINDELSIRKGKYGPYIMYKTKKMKRPKFKSIGDNTPDEFLADKGSISEIILWIN | -0.452
HMNSSHRLIGLDPGLRVTGWGIVDAIGTKLVHVANGSVKSQQNAPLATRLLELENGLEEVFDNWQPDFA | -0.0459
HMNSVLPQEVKSSLNDFFTKYAPGSIAQKLINHASFTGGKVVVTGVELTQTQADDLKKAFKDKFF | 0.22
